Measured values: patent US20260242472A1 (SANYOU BIOPHARMACEUTICALS, published 2026)

B1: huCD3E-AA1-27-huFc (Fc fusion)
chain: QDGNEEMGGITQTPYKVSISGTTVILTTHTCPPCPAPELLGGPSVFLFPPKPKDTLMISRTPEVTCVVVDVSHEDPQVKFNWYVDGVQVHNAKTKPREQQYNSTYRVVSVLTVLHQNWLDGKEYKCKVSNKALPAPIEKTISKAKGQPREPQVYTLPPSREEMTKNQVSLTCLVKGFYPSDIAVEWESNGQPENNYKTTPPVLDSDGSFFLYSKLTVDKSRWQQGNVFSCSVMHEALHNHYTQKSLSLSPGK
notes: Made in HEK293 cells, purified on Protein A/G. No linker between the two parts is mentioned; also called antigen protein
B2: huCD3E-AA1-27-huFc-Biotin (Fc fusion)
chain: B1 chain
modifications: biotinylated (sites not given)
notes: also called biotinylated huCD3E AA1-27-huFc

What was measured:
[1] = biological target: T1, H2C-scFv-LH (human); test: SPR (Biacore T200), antigen amine-coupled to about 75 RU, antibody 4 and 20 nM, 1:1 Langmuir fit
T1 construct: also called control antibody H2C-scFv-LH; parent antibody
Protocol: Protein coupling: The huCD3E-AA1-27-huFc protein produced in example 1.2 was diluted to 5.8 μg/mL with an NaAc buffer at pH 4.5. The flow rate was set to 10 μL/min. The chip was activated with a mixture of 1-ethyl-(3-dimethylaminopropyl)carbodiimide (EDC) and N-hydroxysuccinimide (NHS) for the default time of 420 s. The antigen protein huCD3E AA1-27-huFc was immobilized to a level of approximately 75 RU using a coupling mode with a preset coupling amount. The activated groups not bound to the test sample were blocked with ethanolamine.
Sample test condition: A PBS buffer (pH 7.4) containing 0.05% Tween-20 was used as a running buffer, and the running buffer was used as a control antibody test sample. A series of antibody concentrations (4 nM, 20 nM) were set. During sample analysis, the flow rate was set to 30 μL/min, the binding time was 180 s, and the dissociation time was 300 s. After dissociation was completed, regeneration was performed with 10 mM Gly-HCl (pH 2.0) for 20 s to completely remove antibody bound to the antigen.
Parameter fitting: The experiment was run in multiple cycles, with the response signal plotted against analysis time on the abscissa and response value on the ordinate. After dual-reference subtraction, the obtained data were fitted by BIAcore T200 analysis software. The fitting model used was a 1:1 Langmuir binding model, so as to determine affinity indicators such as the binding dissociation constant.

[2] = biological target: T2, 79-scFv-LH (human); test: BLI (Gator), biotinylated antigen on SA probe, antibody 0.62-40 nM
T2 construct: scFv-Fc
Protocol: (§1) Protein biotinylation: The antigen protein huCD3E AA1-27-huFc was diluted to a final concentration of 1 mg/mL, premixed with biotin and reacted at 4° C. for 1 h, and then unreacted free biotin was removed by filtration with an ultrafiltration tube to obtain biotinylated huCD3E AA1-27-huFc (hereinafter referred to as huCD3E-AA1-27-huFc-Biotin).
(§2) In the dark, the sensor was pre-wetted with Q Buffer (SA Probes, ProbeLife). After 10 min, the sample plate (Greiner, 655209) was tested. After the test was correct, the preset procedure was followed. First, antigen binding was performed for 600 s. After the binding was completed and equilibration was continued in Q Buffer for 30 s, the sensor bound to the antigen huCD3E-AA1-27-huFc-Biotin was transferred to different concentrations of antibody dilutions for binding for 120 s, and then transferred to Q Buffer for dissociation for 180 s. Finally, KD, Ka and Kd were obtained by fitting the binding and dissociation data of different concentrations of antigens and antibodies.

[3] = biological target: T1, H2C-scFv-LH; test: as above
Protocol: as §1, §2

[4] = biological target: T3, 63-scFv-LH (human); test: as above
T3 construct: scFv-Fc
Protocol: as §1, §2

Row | Binder | Kd [1] [nM] | koff [1] [s⁻¹] | kon [1] [M⁻¹ s⁻¹] | Kd [2] [nM] | koff [2] [s⁻¹] | kon [2] [M⁻¹ s⁻¹] | Kd [3] [nM] | koff [3] [s⁻¹] | kon [3] [M⁻¹ s⁻¹] | Kd [4] [nM] | koff [4] [s⁻¹] | kon [4] [M⁻¹ s⁻¹]
1 | B1 | 0.0596 | 0.000165 | 2.77e+06 | – | – | – | – | – | – | – | – | –
2 | B2 | – | – | – | 0.222 | 0.000184 | 826000 | 0.318 | 0.000327 | 1.03e+06 | 0.358 | 0.000428 | 1.19e+06
